How the values were obtained:
[1] = Stability of [^68Ga]Ga-Trivehexin in formulation (PBS), radio-HPLC; format: physicochemical; details: Phosphate Buffer Saline, 2 h co-incubation of final product
Method: Radiochemical purity was evaluated by radio-HPLC and radio-TLC. For radio-HPLC, a mobile phase of H2O with 0.1% trifluoroacetic acid (TFA) (v/v, phase A) and acetonitrile with 0.1% TFA (v/v, phase B) was used with a flow rate of 1.0 mL/min and a linear elution gradient as follows: 0-5 min (0-95% A); 5-10 min (95-30% A);10-20 min (30-0% A). For radio-TLC, 0.4 M ammonium acetate solution/methanol (v/v, 1/1) (A) and 0.1 M citrate buffer (B) were used as mobile phases, respectively.
The stability of [^68Ga]Ga-Trivehexin in formulation and serum was further evaluated in Phosphate Buffer Saline (PBS) and Fetal Bovine Serum (FBS). After co-incubation of the final product with PBS or FBS for 60 or 120 min, radio-HPLC was used for the analysis.

[2] = clinical; details: human, in vivo, iv, total radioactivity

Compound: CC(C)C[C@@H]1NC(=O)[C@H](CC(=O)O)NC(=O)CNC(=O)[C@H](CCCNC(=N)N)NC(=O)[C@H](Cc2ccc(O)cc2)NC(=O)[C@H](CCCCNC(=O)CCc2cn(CCCNC(=O)CCP(=O)(O)CN3CCN(CP(=O)(O)CCC(=O)NCCCn4cc(CCC(=O)NCCCC[C@H]5C(=O)N[C@@H](Cc6ccc(O)cc6)C(=O)N[C@@H](CCCNC(=N)N)C(=O)NCC(=O)N[C@@H](CC(=O)O)C(=O)N[C@@H](CC(C)C)C(=O)N[C@@H](C)C(=O)N[C@@H](Cc6ccc(O)cc6)C(=O)N6CCC[C@@H]6C(=O)N5C)nn4)CCN(CP(=O)(O)CCC(=O)NCCCn4cc(CCC(=O)NCCCC[C@H]5C(=O)N[C@@H](Cc6ccc(O)cc6)C(=O)N[C@@H](CCCNC(=N)N)C(=O)NCC(=O)N[C@@H](CC(=O)O)C(=O)N[C@@H](CC(C)C)C(=O)N[C@@H](C)C(=O)N[C@@H](Cc6ccc(O)cc6)C(=O)N6CCC[C@@H]6C(=O)N5C)nn4)CC3)nn2)N(C)C(=O)[C@H]2CCCN2C(=O)[C@H](Cc2ccc(O)cc2)NC(=O)[C@H](C)NC1=O [[^68Ga]Ga-Trivehexin, metal not drawn]
- intact tracer remained in PBS [1]: up to 98.9%
- SUV at 0.25 h ([2]; SUVmean ± SD Brain): 0.04 ± 0.01 SUV
- SUV at 0.5 h ([2]; SUVmean ± SD Brain): 0.03 ± 0.01 SUV
- SUV at 0.25 h ([2]; SUVmean ± SD Colon): 1.86 ± 0.31 SUV
- SUV at 0.5 h ([2]; SUVmean ± SD Colon): 1.52 ± 0.36 SUV
- SUV at 2.5 h ([2]; SUVmean ± SD Colon): 0.78 ± 0.16 SUV
- SUV at 0.25 h ([2]; SUVmean ± SD Eyes): 0.36 ± 0.04 SUV
- SUV at 0.5 h ([2]; SUVmean ± SD Eyes): 0.28 ± 0.14 SUV
- SUV at 1 h ([2]; SUVmean ± SD Eyes): 0.71 ± 0.28 SUV
- SUV at 2.5 h ([2]; SUVmean ± SD Eyes): 0.12 ± 0.03 SUV
- SUV at 0.25 h ([2]; SUVmean ± SD Fat tissue): 0.26 ± 0.03 SUV
- SUV at 0.5 h ([2]; SUVmean ± SD Fat tissue): 0.22 ± 0.03 SUV
- SUV at 1 h ([2]; SUVmean ± SD Fat tissue): 0.26 ± 0.02 SUV
- SUV at 0.25 h ([2]; SUVmean ± SD Kidney): 19.3 ± 1.13 SUV
- SUV at 0.5 h ([2]; SUVmean ± SD Kidney): 21.5 ± 1.28 SUV
- SUV at 1 h ([2]; SUVmean ± SD Kidney): 23.4 ± 2.38 SUV
- SUV at 0.25 h ([2]; SUVmean ± SD Liver): 1.68 ± 0.26 SUV
- SUV at 0.5 h ([2]; SUVmean ± SD Liver): 1.11 ± 0.23 SUV
- SUV at 2.5 h ([2]; SUVmean ± SD Liver): 0.65 ± 0.1 SUV
- SUV at 0.25 h ([2]; SUVmean ± SD Lung): 0.65 ± 0.03 SUV
- SUV at 0.5 h ([2]; SUVmean ± SD Lung): 0.58 ± 0.14 SUV
- SUV at 1 h ([2]; SUVmean ± SD Lung): 0.53 ± 0.05 SUV
- SUV at 0.25 h ([2]; SUVmean ± SD Muscle): 1.04 ± 0.1 SUV
- SUV at 0.5 h ([2]; SUVmean ± SD Muscle): 1.04 ± 0.01 SUV
- SUV at 2.5 h ([2]; SUVmean ± SD Muscle): 0.68 ± 0.1 SUV
- SUV at 0.25 h ([2]; SUVmean ± SD Myocardium): 1.69 ± 0.35 SUV
- SUV at 0.5 h ([2]; SUVmean ± SD Myocardium): 0.83 ± 0.13 SUV
- SUV at 1 h ([2]; SUVmean ± SD Myocardium): 0.52 ± 0.01 SUV
- SUV at 0.25 h ([2]; SUVmean ± SD Oral mucosa): 2.6 ± 0.38 SUV
- SUV at 0.5 h ([2]; SUVmean ± SD Oral mucosa): 2.28 ± 0.13 SUV
- SUV at 1 h ([2]; SUVmean ± SD Oral mucosa): 2.12 ± 0.43 SUV
- SUV at 2.5 h ([2]; SUVmean ± SD Oral mucosa): 1.59 ± 0.42 SUV
- SUV at 0.25 h ([2]; SUVmean ± SD Pancreas): 2.46 ± 0.12 SUV
- SUV at 0.5 h ([2]; SUVmean ± SD Pancreas): 1.47 ± 0.24 SUV
- SUV at 1 h ([2]; SUVmean ± SD Pancreas): 1.01 ± 0.11 SUV
- SUV at 2.5 h ([2]; SUVmean ± SD Pancreas): 1.13 ± 0.28 SUV
- SUV at 0.25 h ([2]; SUVmean ± SD Parotid gland): 2.31 ± 0.09 SUV
- SUV at 0.5 h ([2]; SUVmean ± SD Parotid gland): 1.19 ± 0.06 SUV
- SUV at 1 h ([2]; SUVmean ± SD Parotid gland): 1.01 ± 0.1 SUV
- SUV at 0.25 h ([2]; SUVmean ± SD Spinal Canal(C5)): 1.17 ± 0.15 SUV
- SUV at 0.5 h ([2]; SUVmean ± SD Spinal Canal(C5)): 0.62 ± 0.12 SUV
- SUV at 2.5 h ([2]; SUVmean ± SD Spinal Canal(C5)): 0.54 ± 0.15 SUV
- SUV at 0.25 h ([2]; SUVmean ± SD Spleen): 1.95 ± 0.12 SUV
- SUV at 0.5 h ([2]; SUVmean ± SD Spleen): 1.01 ± 0.06 SUV
- SUV at 1 h ([2]; SUVmean ± SD Spleen): 0.76 ± 0.01 SUV
